Like-named read-outs stand apart in the source and are kept apart here.
What was measured:
Test in all cases: Octet BLI; Fab 200 nM
[1] = target: T1, extracellular domain of human BCMA (human, UniProt Q02223 1-54)
T1 construct: amine-linked to Octet AR2G tips; also called hsBCMA; BCMA (human)
T1 sequence: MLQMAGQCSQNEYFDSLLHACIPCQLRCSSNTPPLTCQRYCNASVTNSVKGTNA

[2] = target: T2, extracellular domain of rhesus monkey BCMA (rhesus monkey, UniProt F7FFA0 1-53)
T2 construct: extracellular domain; also called RhBCMA

[3] = target: T1, extracellular domain of human BCMA; remark: listed apart in the source
[4] = target: T2, extracellular domain of rhesus monkey …; remark: listed apart in the source

T2 sequence (F7FFA0 entry or part of it): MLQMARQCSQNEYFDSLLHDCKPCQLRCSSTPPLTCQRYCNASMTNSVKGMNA

Binder	Kd [1]	koff [1]	kon [1]	Kd [2]	koff [2]	kon [2]	Kd [3]	Kd [4]
AB200_Fab + D99S (Fab, name in Kabat numbering, V domains shown) VH: QVQLVQSGAEVKKPGSSVKVSCKASGGTFSNYWMHWVRQAPGQGLEWMGATYRGHSDTYYNQKFKGRVTITADKSTSTAYMELSSLRSEDTAVYYCARGAIYSGYDVLDNWGQGTLVTVSS VL: DIQMTQSPSSLSASVGDRVTITCSASQDISNYLNWYQQKPGKAPKLLIYYTSNLHSGVPSRFSGSGSGTDFTLTISSLQPEDFATYYCQQYRKLPWTFGQGTKLEIKR	3.86 nM	0.00044 s⁻¹	110000 M⁻¹ s⁻¹	9.75 nM	0.00114 s⁻¹	120000 M⁻¹ s⁻¹	–	–
AB200_Fab + D99H (Fab, V domains shown, also called AB200_D99H; D99H variant) VH: QVQLVQSGAEVKKPGSSVKVSCKASGGTFSNYWMHWVRQAPGQGLEWMGATYRGHSDTYYNQKFKGRVTITADKSTSTAYMELSSLRSEDTAVYYCARGAIYHGYDVLDNWGQGTLVTVSS VL: DIQMTQSPSSLSASVGDRVTITCSASQDISNYLNWYQQKPGKAPKLLIYYTSNLHSGVPSRFSGSGSGTDFTLTISSLQPEDFATYYCQQYRKLPWTFGQGTKLEIKR	2.08 nM	0.00037 s⁻¹	180000 M⁻¹ s⁻¹	5.7 nM	0.00105 s⁻¹	180000 M⁻¹ s⁻¹	–	–
AB200_Fab + D99T (Fab, name in Kabat numbering, V domains shown) VH: QVQLVQSGAEVKKPGSSVKVSCKASGGTFSNYWMHWVRQAPGQGLEWMGATYRGHSDTYYNQKFKGRVTITADKSTSTAYMELSSLRSEDTAVYYCARGAIYTGYDVLDNWGQGTLVTVSS VL: DIQMTQSPSSLSASVGDRVTITCSASQDISNYLNWYQQKPGKAPKLLIYYTSNLHSGVPSRFSGSGSGTDFTLTISSLQPEDFATYYCQQYRKLPWTFGQGTKLEIKR	3.72 nM	0.0003 s⁻¹	80000 M⁻¹ s⁻¹	11.5 nM	0.00099 s⁻¹	90000 M⁻¹ s⁻¹	–	–
AB200-(2Vk30)_R2-VH-v16 (Fab, V domains shown) VH: QVQLVQSGAEVKKPGSSVKVSCKASGGSFSNYWIHWVRQAPGQGLEWMGGTYRSHSDTNYNQKFKSRVTITADKSTSTAYMELSSLRSEDTAVYYCARGAIFHGYDVIDNWGQGTLVTVSS VL: DIQMTQSPSSLSASVGDRVTITCRASQSISSYLNWYQQKPGKAPKLLIYATSNLQIGVPSRFSGSGSGTDFTLTISSLQPEDFATYYCQQYRRIPWTFGQGTKLEIKR	–	–	–	–	–	–	74.6 nM	178 nM
AB200-(2Vk30)_R2-VH-v19 (Fab, V domains shown) VH: QVQLVQSGAEVKKPGSSVKVSCKASGGTFSNYWIHWVRQAPGQGLEWMGGTYRSHSTTYYNQKFKSRVTITADKSTSTAYMELSSLRSEDTAVYYCARGAIYHGFDVIDNWGQGTLVTVSS VL: DIQMTQSPSSLSASVGDRVTITCRASQSISSYLNWYQQKPGKAPKLLIYATSNLQIGVPSRFSGSGSGTDFTLTISSLQPEDFATYYCQQYRRIPWTFGQGTKLEIKR	–	–	–	–	–	–	14.6 nM	25.4 nM
AB200-(2Vk30)_R2-VH-v39 (Fab, V domains shown) VH: QVQLVQSGAEVKKPGSSVKVSCKASGGTFTNYWIHWVRQAPGQGLEWMGATYRIHSDTYYAEKFKSRVTITADKSTSTAYMELSSLRSEDTAVYYCARGAIFHGYDVIDNWGQGTLVTVSS VL: DIQMTQSPSSLSASVGDRVTITCRASQSISSYLNWYQQKPGKAPKLLIYATSNLQIGVPSRFSGSGSGTDFTLTISSLQPEDFATYYCQQYRRIPWTFGQGTKLEIKR	–	–	–	–	–	–	3 nM	15.4 nM
AB200-(2Vk30)_R2-VH-v13 (Fab, V domains shown) VH: QVQLVQSGAEVKKPGSSVKVSCKASGGSFSNYWIHWVRQAPGQGLEWMGGTYRSHSDTYYAQKFKSRVTITADKSTSTAYMELSSLRSEDTAVYYCARGAIYHGYDVIENWGQGTLVTVSS VL: DIQMTQSPSSLSASVGDRVTITCRASQSISSYLNWYQQKPGKAPKLLIYATSNLQIGVPSRFSGSGSGTDFTLTISSLQPEDFATYYCQQYRRIPWTFGQGTKLEIKR	–	–	–	–	–	–	44.7 nM	144 nM
AB200-(2Vk30)_R2-VH-v40 (Fab, V domains shown) VH: QVQLVQSGAEVKKPGSSVKVSCKASGGTFTNYWIHWVRQAPGQGLEWMGATYRIHSTTYYAQKFKSRVTITADKSTSTAYMELSSLRSEDTAVYYCARGAIYHGFDVIDNWGQGTLVTVSS VL: DIQMTQSPSSLSASVGDRVTITCRASQSISSYLNWYQQKPGKAPKLLIYATSNLQIGVPSRFSGSGSGTDFTLTISSLQPEDFATYYCQQYRRIPWTFGQGTKLEIKR	–	–	–	–	–	–	15.5 nM	32.5 nM
AB200-(2Vk30)_R2-VH-v10 (Fab, V domains shown) VH: QVQLVQSGAEVKKPGSSVKVSCKASGGTYSNYWIHWVRQAPGQGLEWMGATYRSHSDTNYNQKYKSRVTITADKSTSTAYMELSSLRSEDTAVYYCARGAIYHGYDVIENWGQGTLVTVSS VL: DIQMTQSPSSLSASVGDRVTITCRASQSISSYLNWYQQKPGKAPKLLIYATSNLQIGVPSRFSGSGSGTDFTLTISSLQPEDFATYYCQQYRRIPWTFGQGTKLEIKR	–	–	–	–	–	–	85.8 nM	330 nM
AB200-(2Vk30)_R2-VH-v4 (Fab, V domains shown) VH: QVQLVQSGAEVKKPGSSVKVSCKASGGTFTNYWIHWVRQAPGQGLEWMGATYRSHSDTNYAQKFKSRVTITADKSTSTAYMELSSLRSEDTAVYYCARGAIYHGYDVIENWGQGTLVTVSS VL: DIQMTQSPSSLSASVGDRVTITCRASQSISSYLNWYQQKPGKAPKLLIYATSNLQIGVPSRFSGSGSGTDFTLTISSLQPEDFATYYCQQYRRIPWTFGQGTKLEIKR	–	–	–	–	–	–	46.4 nM	125 nM
AB200-(2Vk30)_R2-VH-v30 (Fab, V domains shown) VH: QVQLVQSGAEVKKPGSSVKVSCKASGGTFSNYWIHWVRQAPGQGLEWMGATYRSHSDTNYAQKFKSRVTITADKSTSTAYMELSSLRSEDTAVYYCARGAIYHGYDVIENWGQGTLVTVSS VL: DIQMTQSPSSLSASVGDRVTITCRASQSISSYLNWYQQKPGKAPKLLIYATSNLQIGVPSRFSGSGSGTDFTLTISSLQPEDFATYYCQQYRRIPWTFGQGTKLEIKR	–	–	–	–	–	–	50.4 nM	141 nM
AB200-(2Vk30)_R2-VH-v43 (Fab, V domains shown) VH: QVQLVQSGAEVKKPGSSVKVSCKASGGTFTNYWIHWVRQAPGQGLEWMGGTYRIHSDTYYAQKFKSRVTITADKSTSTAYMELSSLRSEDTAVYYCARGAIYHGFDVIDNWGQGTLVTVSS VL: DIQMTQSPSSLSASVGDRVTITCRASQSISSYLNWYQQKPGKAPKLLIYATSNLQIGVPSRFSGSGSGTDFTLTISSLQPEDFATYYCQQYRRIPWTFGQGTKLEIKR	–	–	–	–	–	–	6.82 nM	25.8 nM
AB200-(2Vk30)_R2-VH-v31 (Fab, V domains shown) VH: QVQLVQSGAEVKKPGSSVKVSCKASGGTFSNYWIHWVRQAPGQGLEWMGATYRSQSDTNYNQKFKSRVTITADKSTSTAYMELSSLRSEDTAVYYCARGAVYHGYDVIDNWGQGTLVTVSS VL: DIQMTQSPSSLSASVGDRVTITCRASQSISSYLNWYQQKPGKAPKLLIYATSNLQIGVPSRFSGSGSGTDFTLTISSLQPEDFATYYCQQYRRIPWTFGQGTKLEIKR	–	–	–	–	–	–	12.9 nM	38.4 nM
AB200-(2Vk30)_R2-VH-v23 (Fab, V domains shown) VH: QVQLVQSGAEVKKPGSSVKVSCKASGGTFSNYWIHWVRQAPGQGLEWMGGTYRSHSDTYYNQKYKSRVTITADKSTSTAYMELSSLRSEDTAVYYCARGAIFHGYDVIDNWGQGTLVTVSS VL: DIQMTQSPSSLSASVGDRVTITCRASQSISSYLNWYQQKPGKAPKLLIYATSNLQIGVPSRFSGSGSGTDFTLTISSLQPEDFATYYCQQYRRIPWTFGQGTKLEIKR	–	–	–	–	–	–	6.89 nM	25.9 nM
